{
  "source": "patent US20190300604A1",
  "about": "(ASCLEPIUMM TAIWAN, published 2019)",
  "biological_target": "T1, human Desmoglein2 (Dsg2) (human, UniProt Q14126 50-1118)",
  "T1 construct": "whole, on cells; also called Dsg2-expressing cells",
  "T1 sequence (looked up)": "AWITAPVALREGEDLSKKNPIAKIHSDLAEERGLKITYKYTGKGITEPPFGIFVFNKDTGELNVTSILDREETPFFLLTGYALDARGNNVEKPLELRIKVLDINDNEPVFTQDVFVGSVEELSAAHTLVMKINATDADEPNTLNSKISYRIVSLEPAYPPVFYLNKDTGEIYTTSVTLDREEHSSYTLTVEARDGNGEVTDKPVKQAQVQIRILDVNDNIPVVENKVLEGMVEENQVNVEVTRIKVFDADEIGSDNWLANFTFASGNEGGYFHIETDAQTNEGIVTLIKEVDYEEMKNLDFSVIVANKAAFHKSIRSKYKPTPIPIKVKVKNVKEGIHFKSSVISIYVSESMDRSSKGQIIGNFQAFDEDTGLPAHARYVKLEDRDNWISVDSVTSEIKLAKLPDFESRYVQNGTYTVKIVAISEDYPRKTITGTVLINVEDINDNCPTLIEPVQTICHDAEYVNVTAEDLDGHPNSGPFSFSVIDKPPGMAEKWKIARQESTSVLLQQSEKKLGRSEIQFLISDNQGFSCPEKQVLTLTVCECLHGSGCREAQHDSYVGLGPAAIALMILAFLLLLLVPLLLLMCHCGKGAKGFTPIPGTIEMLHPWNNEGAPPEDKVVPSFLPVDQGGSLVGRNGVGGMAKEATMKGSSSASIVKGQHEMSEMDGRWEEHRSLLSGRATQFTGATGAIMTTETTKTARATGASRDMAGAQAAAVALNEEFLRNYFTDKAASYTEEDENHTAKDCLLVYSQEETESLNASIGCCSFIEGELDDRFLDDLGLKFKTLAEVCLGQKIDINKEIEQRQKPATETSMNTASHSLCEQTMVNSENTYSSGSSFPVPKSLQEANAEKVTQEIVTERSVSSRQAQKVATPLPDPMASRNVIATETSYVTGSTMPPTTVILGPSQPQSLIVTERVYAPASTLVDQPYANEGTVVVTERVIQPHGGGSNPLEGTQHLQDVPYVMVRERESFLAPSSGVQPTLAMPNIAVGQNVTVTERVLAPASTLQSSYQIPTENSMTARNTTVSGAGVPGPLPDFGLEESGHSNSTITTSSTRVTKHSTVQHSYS",
  "experiment": "flow cytometry and Western blotting, Dsg2 knockdown and Dsg2 over-expression cells",
  "data": [
    {"binder": "Dsg2 monoclonal antibody 3D4 (antibody, V domains shown, Mouse hybridoma antibody from BALB/c mice, detected with anti-mouse IgG Fc-gamma specific antibody; also called mAb 3D4) VH: QIQLVQSGPELKKPGETVKISCKASGYTFTNYGMNWVRQAPGKALKWMVWMNTNTGESIYAEEFKGRFVFSLDTSASTAYLQINNLNNEDTATYFCARYWDTYWGQGTTLTVSS VL: DIKMTQSPSSMYASLGERVTITCKASQDINSYLSWFQQKPGKSPKTLIYRANRLVDGVPSRFSGSGSGQDFSLTISSLEYEDMGIYYCLQYDEFPYTFGGGTKLEIK", "values": [
      {"measurement": "binding result", "result": "binds"}
    ]},
    {"binder": "Dsg2 monoclonal antibody 13D3 (antibody, V domains shown, Mouse hybridoma antibody from BALB/c mice, detected with anti-mouse IgG Fc-gamma specific antibody; also called mAb 13D3) VH: QVQLQQPGAELVKPGASVKLSCKASGYTFTSYYMYWVKQRPGQGLEWIGGINPNNGGTNFNEKFKSKATLTVDKSSSTAYMQLRSLTSEDSAVYYCIRGSGYGNWGQGTLVTVSA VL: DIKMTQSPSSMYASLGERVTITCKASQDINGYLSWFQQKPGKSPKTLIYRANRLVDGVPSRFSGSGSGQDYSLTISSLEYEDMGIYYCLQYDEFPYTFGGGTKLEIK", "values": [
      {"measurement": "binding result", "result": "binds"}
    ]}
  ]
}
